According to patent US11555069B2, “Cognitive function improving agent” (Kao Corporation, priority 2016, dated 2023):

Columns and labels:
db/db mice [1] = assay: Y-maze (short-term memory) test, Example 1; type: in vivo, mouse; details: db/db mice 30-week-old, i.p. twice a week, 20 days after start (after seven administrations); GIP 5 nmol/kg, anti-GIP antibody 1 mg/kg; FIG. 2
Method: (§1) Six-week-old leptin receptor deficient C57BLKS/J male mice (db/db mice, Oriental Yeast Co., Ltd.) were transferred (room temperature: 23° C., humidity: 55±10%, light period: 7:00 to 19:00) and were fed with food and water ad libitum. The food was CE-2 (CLEA Japan, Inc.), and the mice were acclimated for 2 weeks under the above-mentioned environment and were then used for testing.
(§2) Mouse-derived GIP (manufactured by AnaSpec, Inc.) was dissolved in physiological saline at a concentration of 500 nM to give a GIP solution. […]
(§3) The test was performed 10 days before the start of the administration and 20 days after the start of the administration (after seven administrations) to measure the short-term memory and learning ability (working memory). Each mouse was placed at an end of a plastic Y-maze (manufactured by Noldus Information Technology) in which the arms each have a length of 40 cm and a height of 12 cm and form an angle of 120° with each other, and the behavior of the mouse was video-recorded for 10 minutes to measure the order and the number of entries into the arms. The score of short-term memory and learning ability was evaluated by the spontaneous alternation behavior change rate (see the following calculation formula). […]

db/db mice [2] = assay: Novel object recognition (long-term memory) test, Example 1; type: in vivo, mouse; details: db/db mice 30-week-old, i.p. twice a week, 15 days after start (after six administrations); GIP 5 nmol/kg, anti-GIP antibody 1 mg/kg; FIG. 3
Method: as §1, §2
The test was performed 5 days before the start of the administration and 15 days after the start of the administration (after six administrations) to measure the long-term memory and learning ability (reference memory). […] On the following day, two identical objects (rubber objects wrapped with blue rubber tape: columns each having 4 cm diameter and 3.5 cm height) were placed in the box (at a position with a space of 10 cm in length and 10 cm in width from the wall), and the behavior of the mouse was video-recorded for 5 minutes to measure the number of recognitions (the number of times the mouse approached each object within 1 cm) (training trial, on the 14th day from the start of the administration). […] The score of long-term memory and learning ability was evaluated by the recognition rate of the novel object in the retention trial (see the following calculation formula). […]

GIP(1-42) = molecular target: T1, GIP(1-42) (Homo sapiens, UniProt P09681); assay: Sandwich ELISA, reactivity with active GIP; type: binding; details: biotinylated antibody 1 μg/mL as detection antibody, GIP 8.2 to 2000 pg/mL, FIG. 1
T1 sequence (P09681 52-93): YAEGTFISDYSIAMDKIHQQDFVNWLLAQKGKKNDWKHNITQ
Method: (§4) The reactivity between the monoclonal antibody prepared in Production Example 1 and active GIP was confirmed by ELISA. The amino group of the anti-active GIP monoclonal antibody was biotinylated with NH2 group biotinylation kit (manufactured by Dojindo Laboratories). ELISA was performed using the produced biotinylated anti-active GIP monoclonal antibody at 1 μg/mL instead of a detection antibody, GIP detection antibody (biotinylated anti-total GIP monoclonal antibody), included in Human (total) GIP ELISA kit (manufactured by EMD Millipore Corporation). A […] dilution series of GIP(1-42) or GIP(3-42) was prepared in 6 steps (8.2 to 2000 pg/mL) with a 2000 pg/mL solution as the highest concentration. By using an anti-total GIP monoclonal antibody (included in Human GIP (total) ELISA kit manufactured by EMD Millipore Corporation) as a capture antibody, the biotinylated anti-active GIP monoclonal antibody as a detection antibody, and a peroxidase-streptavidin conjugate for detection, sandwich ELISA was conducted to prepare a calibration curve with GIP concentration on the X-axis and 450 nm-590 nm absorbance on the Y-axis (FIG. 1).

[3] = system: C57BL/6J mice (107-week-old); assay: Novel object recognition (long-term memory) test in aged mice, Example 3; type: in vivo, mouse; details: aged C57BL/6J mice (107-week-old), 0.5 mg/kg i.p. once a week, 5 weeks after start; compared to control group; FIG. 6
Method: (§5) Four-week-old C57BL/6J male mice (CLEA Japan, Inc.) were transferred (room temperature: 23° C., humidity: 55±10%, light period: 7:00 to 19:00) and were fed with food (D12450K, Research Diets, Inc.) and water ad libitum for 111 weeks.
(§6) The anti-active GIP antibody produced in Production Example 1 was dissolved in physiological saline at a concentration of 0.05 mg/mL to give an anti-GIP antibody solution.
(§7) Physiological saline (control group) or the anti-GIP antibody solution (0.5 mg/kg body weight) (anti-GIP antibody administration group) was intraperitoneally administered to C57BL/6J mice (107-week-old) once a week (9:00 to 10:00 a.m.), 6 times in total.
The test was performed 5 weeks after the start of the administration to measure the long-term memory and learning ability (reference memory). […] On the following day, two identical objects (rubber objects wrapped with blue rubber tape: columns each having 4 cm diameter and 3.5 cm height) were placed in the box (at a position with a space of 10 cm in length and 10 cm in width from the wall), and the behavior of the mouse was video-recorded for 5 minutes to measure the number of recognitions (the number of times the mouse approached each object within 1 cm) (training trial). […]

[4] = molecular target: T2, PEGylated N-terminus 15 amino acids of active GIP (GIP(1-15)) (Homo sapiens, UniProt P09681); assay: Hybridoma screening/cloning ELISA with immobilized antigen (1); type: binding; details: hybridoma culture supernatant, immobilized PEGylated GIP(1-15)
T2 construct: PEGylated N-terminus 15 amino acids of active GIP (GIP(1-15)); made in house; host or cells: peptide synthesis (no expression host)
Method: (§8) Polyethylene glycol was added to N-terminus 15 amino acids of active GIP (GIP(1-15)) (PEGylation (polyethylene glycolation)), and keyhole limpet hemocyanin (KLH) was then chemically bonded thereto to produce KLH-linked PEGylated GIP (1-15) as an immunogen.

GIP(3-42) = molecular target: T3, GIP(3-42) (Homo sapiens, UniProt P09681); assay: Sandwich ELISA, cross-reactivity with inactive GIP; type: binding; details: biotinylated antibody 1 μg/mL as detection antibody, GIP 8.2 to 2000 pg/mL, FIG. 1
T3 sequence (P09681 54-93): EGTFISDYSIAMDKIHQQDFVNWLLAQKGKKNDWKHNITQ
Method: as §4

[5] = molecular target: T4, PEGylated N-terminus 13 amino acids of inactive GIP (GIP(3-15)) (Homo sapiens, UniProt P09681); assay: Hybridoma screening/cloning ELISA with immobilized antigen (2); type: binding; details: hybridoma culture supernatant, immobilized PEGylated GIP(3-15)
T4 construct: made in house; host or cells: peptide synthesis (no expression host)
Method: as §8

[6] = system: C57BL/6J mice (107-week-old); assay: Y-maze (short-term memory) test in aged mice, Example 3; type: in vivo, mouse; details: aged C57BL/6J mice (107-week-old), 0.5 mg/kg i.p. once a week, 6 times; compared to non-administration and control group; FIG. 5
Method: as §5, §6, §7
as §3, with “1 week” for “10 days”, “1 week” for “20 days”, “two administrations), 3 weeks after the start (after four administrations), and 5 weeks after the start (after six” for “seven”, “arms.” for “arms. The score of short-term memory and learning ability was evaluated by the spontaneous alternation behavior change rate (see the following calculation formula).”

Row | Molecule | spontaneous alternation behavior change rate (short-term memory and learning ability) (db/db mice [1]) | novel object recognition rate (long-term memory and learning ability) (db/db mice [2]) | reactivity with GIP(1-42) (450 nm-590 nm absorbance) (GIP(1-42)) | novel object recognition rate (long-term memory and learning ability) [3] | ELISA reaction with antigen (1) for measurement [4] | cross-reactivity with GIP(3-42) (450 nm-590 nm absorbance) (GIP(3-42)) | ELISA reaction with antigen (2) for measurement [5] | spontaneous alternation behavior change rate (short-term memory and learning ability) [6]
1 | GIP: Mouse-derived GIP (manufactured by AnaSpec, Inc.) dissolved in physiological saline at 500 nM (YAEGTFISDYSIAMDKIRQQDFVNWLLAQRGKKSDWKHNITQ; Gastric inhibitory polypeptide; UniProt P48756 44-85, looked up) | a decrease in the spontaneous alternation behavior change rate (short-term memory and learning ability) was observed | a decrease in the novel object recognition rate (long-term memory and learning ability) was observed | – | – | – | – | – | –
2 | monoclonal antibody prepared in Production Example 1: anti-active GIP monoclonal antibody produced by hybridoma 9B9H5-B9 line; H-chain variable region SEQ ID NO: 2, L-chain variable region SEQ ID NO: … (antibody, listed as Mus musculus, V domains shown) VH: QVQLQQPGAELVKPGASVKLSCKASGYTFTSFWMHWVIQRPGQGLEWIGEMNPSDGRTHFNEKFKTKATLTIDTSSNTAYMELNSLTSEDSAVYYCARRMEDWGQGTLVTVSA VL: DIKMTQSPSSMYASLGERVTITCKASQDINSYLGWFQQKPGKSPKTLIYGANRLVDGVPSRFSGSGSGQDYSLTISSLEYDDMGIYYCLQYDEFPLTFGAGTKLELKR | – | – | capable of specifically detecting GIP(1-42) | an increase in the novel object recognition rate (long-term memory and learning ability) was observed | positive for the antigen (1) | does not show cross-reactivity with GIP(3-42) | negative for the antigen (2) | an increase in the spontaneous alternation behavior change rate (short-term memory and learning ability) was observed
